{
  "source": "patent US20090149339A1",
  "molecular_target": "GST-DLG1 PDZ domain fusion protein (human homolog of Drosophila discs large protein AA275-477; PDZ domains 1-2 of 3) (human) [GST: P08515]",
  "sequence (P08515 1-218, tags or fused parts left off)": "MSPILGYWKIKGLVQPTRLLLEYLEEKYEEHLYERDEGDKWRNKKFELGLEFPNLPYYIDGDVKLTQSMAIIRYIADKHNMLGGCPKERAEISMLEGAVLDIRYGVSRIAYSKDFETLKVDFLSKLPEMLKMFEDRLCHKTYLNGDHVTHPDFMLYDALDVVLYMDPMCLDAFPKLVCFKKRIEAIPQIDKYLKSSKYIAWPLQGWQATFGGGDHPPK",
  "assay": "variant of G assay: 100 µM unlabeled 8-mer with 20 µM biotin-labeled AA2L CLASP-2 peptide on GST-DLG1",
  "data": [
    {"substance": "eight amino acid CLASP-2 peptide MTSSSSVV (unlabeled competitor)", "values": [
      {"measurement": "percent inhibition", "value": "> 50", "unit": "%"}
    ]}
  ]
}
